Test results reported in PMC7707817.

Key:
[1] = biological target: ClpP+C (E. coli ClpP C91V, C113A with a cysteine appended after Asn193) (E. coli); experiment: SEC; Superdex-200 of the quenched cross-linking reaction; 50 mM HEPES-KOH pH 7.5, 300 mM NaCl, 20 mM MgCl2, 10% glycerol, 2 mM TCEP; peak 2 = uncrosslinked ClpP+C
[2] = biological target: ClpP+C (E. coli ClpP C91V, C113A with a cysteine appended after Asn193) (E. coli); experiment: cross-linking; E613CClpA‡ (4 µM) and ClpP+C (9.6 µM) mixed; 50 mM HEPES-KOH pH 7, 300 mM NaCl, 20 mM MgCl2, 10% glycerol, 5 mM EDTA; 5 mM ATPγS, 200 µM bismaleimidoethane (BMOE), room temperature, 45 min; quenched with 50 mM DTT; peak-1 pool of Superdex-200 SEC read by reducing SDS-PAGE (Coomassie)

Substance	stoichiometry N [1]	percent of ClpA crosslinked to ClpP [2]
ClpP+C (E. coli ClpP C91V, C113A with a cysteine appended after Asn193) (enzyme)	14	
E613C ClpA‡ (E. coli ClpAΔC9 with C47S, C203S, C243S and E613C) (from UniProt P0ABH9 1-749) (enzyme)		90%
